For 53 variants, abundance fitness results are on record in the Human Domainome abundance scans (Beltran et al. 2025).

± gives the uncertainty stated by the source.

To fix the notation:
B1: Histone-lysine N-methyltransferase SETD2, residues 2382 to 2430; numbered along this chain, Q9BYW2 (parent)
chain: SPPKPKTIVLPPNWKTARDPEGKIYYYHVITRQTQWDPPTWESPGDDAS

Variants of B1 are the subject of this series. Put plainly: abundance fitness (aPCA) (normalised: wild type 0, dead -1); higher = more abundant; growth selection in yeast, the domain comes from the species named. The conditions noted are these: Homo sapiens.
As to SPPKPKTIVLPPNWKTARDPEGKIYYWHVITRQTQWDPPTWESPGDDAS, the abundance fitness is -0.163 ± 0.062.
Take SPPKPKTIVLPPNWKTARDPEGKIYYTHVITRQTQWDPPTWESPGDDAS: the abundance fitness was -0.185 ± 0.075.
The same measure for SPPKPKTIVLPPNWKTARDPEGKIYYVHVITRQTQWDPPTWESPGDDAS: -0.173 ± 0.049.
To SPPKPKTIVLPPNWKTARDPEGKIYYYHNITRQTQWDPPTWESPGDDAS belongs -0.644 ± 0.26; to SPPKPKTIVLPPNWKTARDPEGKIYYYHYITRQTQWDPPTWESPGDDAS, -0.258 ± 0.12; to SPPKPKTIVLPPNWKTARDPEGKIYYYHCITRQTQWDPPTWESPGDDAS, -0.074 ± 0.064.
The same measure for SPPKPKTIVLPPNWKTARDPEGKIYYYHQITRQTQWDPPTWESPGDDAS: -0.018 ± 0.078.
Take SPPKPKTIVLPPNWKTARDPEGKIYYYHMITRQTQWDPPTWESPGDDAS: the abundance fitness was found to be 0.079 ± 0.087.
To SPPKPKTIVLPPNWKTARDPEGKIYYYHGITRQTQWDPPTWESPGDDAS belongs -0.309 ± 0.039.
With SPPKPKTIVLPPNWKTARDPEGKIYYYHEITRQTQWDPPTWESPGDDAS, the abundance fitness amounted to 0.139 ± 0.057.
To SPPKPKTIVLPPNWKTARDPEGKIYYYHTITRQTQWDPPTWESPGDDAS belongs 0.145 ± 0.077; to SPPKPKTIVLPPNWKTARDPEGKIYYYHHITRQTQWDPPTWESPGDDAS, -0.208 ± 0.12; to SPPKPKTIVLPPNWKTARDPEGKIYYYHAITRQTQWDPPTWESPGDDAS, 0.011 ± 0.055.
To SPPKPKTIVLPPNWKTARDPEGKIYYYHLITRQTQWDPPTWESPGDDAS belongs -0.287 ± 0.053; to SPPKPKTIVLPPNWKTARDPEGKIYYYHRITRQTQWDPPTWESPGDDAS, -0.428 ± 0.05.
As for SPPKPKTIVLPPNWKTARDPEGKIYYYHSITRQTQWDPPTWESPGDDAS, the abundance fitness was -0.002 ± 0.035.
The same measure for SPPKPKTIVLPPNWKTARDPEGKIYYYHKITRQTQWDPPTWESPGDDAS: -0.255 ± 0.034; for SPPKPKTIVLPPNWKTARDPEGKIYYYHWITRQTQWDPPTWESPGDDAS: -0.564 ± 0.068.
To SPPKPKTIVLPPNWKTARDPEGKIYYYRVITRQTQWDPPTWESPGDDAS belongs -1.03 ± 0.12.
With SPPKPKTIVLPPNWKTARDPEGKIYYYEVITRQTQWDPPTWESPGDDAS, the abundance fitness was -0.689 ± 0.17.
In the case of SPPKPKTIVLPPNWKTARDPEGKIYYYDVITRQTQWDPPTWESPGDDAS, the abundance fitness was -0.213 ± 0.059.
The same measure for SPPKPKTIVLPPNWKTARDPEGKIYYYFVITRQTQWDPPTWESPGDDAS: -0.94 ± 0.37; for SPPKPKTIVLPPNWKTARDPEGKIYYYKVITRQTQWDPPTWESPGDDAS: -0.971 ± 0.12; for SPPKPKTIVLPPNWKTARDPEGKIYYYVVITRQTQWDPPTWESPGDDAS: -0.991 ± 0.16.
The same measure for SPPKPKTIVLPPNWKTARDPEGKIYYYCVITRQTQWDPPTWESPGDDAS: -0.792 ± 0.21.
The same measure for SPPKPKTIVLPPNWKTARDPEGKIYYYAVITRQTQWDPPTWESPGDDAS: -1.06 ± 0.072.
For SPPKPKTIVLPPNWKTARDPEGKIYYYSVITRQTQWDPPTWESPGDDAS, the abundance fitness was -0.767 ± 0.065.
Regarding SPPKPKTIVLPPNWKTARDPEGKIYYYNVITRQTQWDPPTWESPGDDAS, the abundance fitness was 0.023 ± 0.19.
The same measure for SPPKPKTIVLPPNWKTARDPEGKIYYYGVITRQTQWDPPTWESPGDDAS: -1.01 ± 0.12; for SPPKPKTIVLPPNWKTARDPEGKIYYYQVITRQTQWDPPTWESPGDDAS: -0.64 ± 0.18; for SPPKPKTIVLPPNWKTARDPEGKIYYYMVITRQTQWDPPTWESPGDDAS: -1.01 ± 0.29.
The same measure for SPPKPKTIVLPPNWKTARDPEGKIYYYWVITRQTQWDPPTWESPGDDAS: -1.05 ± 0.12; for SPPKPKTIVLPPNWKTARDPEGKIYYYLVITRQTQWDPPTWESPGDDAS: -1.09 ± 0.17.
On to SPPKPKTIVLPPNWKTARDPEGKIYYYYVITRQTQWDPPTWESPGDDAS, for which the abundance fitness was -0.6 ± 0.33.
To SPPKPKTIVLPPNWKTARDPEGKIYYYHVIARQTQWDPPTWESPGDDAS belongs -0.742 ± 0.11; to SPPKPKTIVLPPNWKTARDPEGKIYYYHVATRQTQWDPPTWESPGDDAS, -0.314 ± 0.057.
With SPPKPKTIVLPPNWKTARDPEGKIYYYHVQTRQTQWDPPTWESPGDDAS, the abundance fitness was -0.268 ± 0.11.
The same measure for SPPKPKTIVLPPNWKTARDPEGKIYYYHVWTRQTQWDPPTWESPGDDAS: -0.447 ± 0.09; for SPPKPKTIVLPPNWKTARDPEGKIYYYHVKTRQTQWDPPTWESPGDDAS: -0.144 ± 0.052.
The same measure for SPPKPKTIVLPPNWKTARDPEGKIYYYHVMTRQTQWDPPTWESPGDDAS: -0.19 ± 0.034; for SPPKPKTIVLPPNWKTARDPEGKIYYYHVFTRQTQWDPPTWESPGDDAS: -0.361 ± 0.2; for SPPKPKTIVLPPNWKTARDPEGKIYYYHVETRQTQWDPPTWESPGDDAS: -0.307 ± 0.044.
The same measure for SPPKPKTIVLPPNWKTARDPEGKIYYYHVRTRQTQWDPPTWESPGDDAS: -0.018 ± 0.046; for SPPKPKTIVLPPNWKTARDPEGKIYYYHVHTRQTQWDPPTWESPGDDAS: -0.068 ± 0.088; for SPPKPKTIVLPPNWKTARDPEGKIYYYHVGTRQTQWDPPTWESPGDDAS: -0.313 ± 0.041.
For the variant SPPKPKTIVLPPNWKTARDPEGKIYYYHVYTRQTQWDPPTWESPGDDAS, the abundance fitness is -0.244 ± 0.12.
The same measure for SPPKPKTIVLPPNWKTARDPEGKIYYYHVLTRQTQWDPPTWESPGDDAS: -0.087 ± 0.046.
To SPPKPKTIVLPPNWKTARDPEGKIYYYHVNTRQTQWDPPTWESPGDDAS belongs -0.046 ± 0.12; to SPPKPKTIVLPPNWKTARDPEGKIYYYHVDTRQTQWDPPTWESPGDDAS, -0.21 ± 0.08.
The same measure for SPPKPKTIVLPPNWKTARDPEGKIYYYHVPTRQTQWDPPTWESPGDDAS: -0.08 ± 0.042.
Take SPPKPKTIVLPPNWKTARDPEGKIYYYHVCTRQTQWDPPTWESPGDDAS: the abundance fitness was -0.498 ± 0.04.
To SPPKPKTIVLPPNWKTARDPEGKIYYYHVTTRQTQWDPPTWESPGDDAS belongs -0.013 ± 0.07; to SPPKPKTIVLPPNWKTARDPEGKIYYYHVSTRQTQWDPPTWESPGDDAS, -0.344 ± 0.06.
